# Data from article PMC11499148.
# Biological target: soluble human FcRn (human) (UniProt P55899)
# Test: SPR; pH 6.0
# Sequence of UniProt P55899 (P55899 24-297, chain 1 of 2): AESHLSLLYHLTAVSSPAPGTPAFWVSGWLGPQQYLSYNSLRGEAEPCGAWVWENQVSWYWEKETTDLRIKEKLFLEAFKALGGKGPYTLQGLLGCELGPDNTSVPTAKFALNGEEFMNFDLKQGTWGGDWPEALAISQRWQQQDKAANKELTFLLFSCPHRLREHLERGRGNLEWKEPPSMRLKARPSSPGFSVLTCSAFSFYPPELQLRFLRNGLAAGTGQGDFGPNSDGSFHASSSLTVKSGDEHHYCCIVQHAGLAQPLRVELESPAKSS
# Sequence of UniProt P55899 (P61769 21-119, chain 2 of 2, further chain): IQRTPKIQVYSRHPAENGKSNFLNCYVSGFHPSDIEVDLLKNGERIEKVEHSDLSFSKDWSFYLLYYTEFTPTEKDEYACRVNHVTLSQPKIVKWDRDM
row,Substance,Kd
1,hAK23-IgG1-DHS,137 nM
2,hAK23-IgG1-WT,334 nM
3,hAK23-IgG4-DHS,64 nM
4,hAK23-IgG4-WT,215 nM
